Among the data in patent US20240408194A1, “DNA ORIGAMI SUBUNIT VACCINE FOR PREVENTION OF SARS-CoV-2 VARIANT INFECTION” (priority 2021, published 2024) are Fluorescence (average) and protein coverage values, retold here.

Test [1] has as its target T1, SARS-CoV-2 spike protein receptor binding domain (RBD), monomeric (SARS-CoV-2), P0DTC2.
Test [2] addresses T1, SARS-CoV-2 spike protein receptor …. The source holds these as a separate data set.

B1: DNA-LCB (designed binder)
chain: CDKEWILQKIYEIMRLLDELGHAEASMRVSDLIYEFMKKGDERLLEEAERLLEEVER
modifications: not checked
In test [1], B1 gave a Fluorescence (average) of 2.08e+07. Besides, in test [2], the protein coverage was determined as 71.6%.
